In the nanobody polyreactivity screen of Harvey et al. (2022):

Assay: yeast display, Sf9 membrane polyspecificity reagent, FACS + sequencing; frameworks hold sequencing errors
Summary of the method: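 A synthetic nanobody library was expressed on Saccharomyces cerevisiae BJ5465 by galactose induction for 36–48 hours. The library was stained for 1 hour at 4 °C with 10% biotinylated, detergent-solubilized Sf9 membrane reagent and enriched with streptavidin microbeads before FACS. Low and high (top ~1%) gates were set on anti-HA fluorescence for expression and streptavidin fluorescence for reagent binding, and each polyreactivity label reflects the gate of origin.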

| Sequence | polyreactivity (PSR sort gate) |
| --- | --- |
| QVQLVESGGGLVQAGGSLRLSCAASGRTFPYNAMGWYIQAPGKERELVAAISSGGSTNYADSVKGRFTISRDNAKNTVYLQMNSLKPEDTAVYYCAVTGWPRYTWYSYGYWGQGTQVTVSS | low polyreactivity |
| QVQLVESGGGLVQAGGSLRLSCAASGRTFPYNAMGWYRPAPGKERELVAAISGRGGSTYYADYVKGRFTISRDNAKNTVYLQMNSLKPEDTAVYYCAARLPWSYYRTQGYNYWGQGTQVTVSS | high polyreactivity |
| QVQLVESGGGLVQAGGSLRLSCAASGRTFPYNAMGWYRQAPGKERELVAAISYSGGRTYYADSVKGRFTISRDNAKNTFYLQMNSLKPEDTAVYYCNALGSGREDDYWGQGTQVTVSS | high polyreactivity |
| QVQLVESGGGLVQAGGSLRLSCAASGRTFPYNAMGWYRQAPGKERELVAAISYSGGRTYYADSVKGRFTISRDNAKNTVYLQMNSLKPEDTAVYYCNALGSGREDDYWGQGTQVTVSS | high polyreactivity |
| QVQLVESGGGLVQAGGSLRLSCAASGRTFPYNAMVWYRQAPGKERELVARITSGVRTYYADSVKGRFTISRDNAKNTVYLQMNSLKPEDTAVYYCAATTYNRFYRAPTSKYDYWGQGTQVTVSS | high polyreactivity |
| QVQLVESGGGLVQAGGSLRLSCAASGRTFPYNARGWYRQAPGKERELVAAISSRGGSTYYADSVKGRFTISRDNAKNTVYLQMNSLKPEDTAVYYCAAQFRFSGMGYWGQGTQVTVSS | high polyreactivity |
| QVQLVESGGGLVQAGGSLRLSCAASGRTFPYYAMGGYRKAPGKERELLASISRGGNTNYADSVKGRFTISRDNAKNTVYLQMNSLKPEATAVYYCAADYYLAYGSRRGGYWGQGTQVTVSS | high polyreactivity |
| QVQLVESGGGLVQAGGSLRLSCAASGRTFPYYAMGWYRQAPGKERELVAAISSSGGRTYYADSVKGRFTISRDNAKNTVYLQMNSLKREDTAVYYCNVDAWYPYQGFLVGYYYWGQGTQVTVSS | low polyreactivity |
| QVQLVESGGGLVQAGGSLRLSCAASGRTFPYYAMGWYRQAPGKERELVAAISSSGGRTYYADSVKGRFTISRDNAKNTVYLQMNSQKPEDTAVYYCAAQTPGVYLRQIGGYYYWGQGTQVTVSS | low polyreactivity |
| QVQLVESGGGLVQAGGSLRLSCAASGRTFPYYAMGWYRQAPGKERELVAAITWSGGTTYYADSVKGRFTISRDNAKNTVYLQMNSLKPEDTAVYYCAADFYGPDGYDYWGQGTQVTVSS | low polyreactivity |
| QVQLVESGGGLVQAGGSLRLSCAASGRTFPYYTMGWYIQAPGKERELVAAIDGSGDNTYYADSVKGRFTISRDYAKNTVYLQLNSLKPEDNAVYYCTAEQWWSLDYWGQGTQVTVSS | low polyreactivity |
| QVQLVESGGGLVQAGGSLRLSCAASGRTFPYYTMGWYRQAPGKERELVAAISRSGGSTYYADSVKGRFTISRDNAKNTVYLQMNSLKPEDTAVYYCAAGIYRYNRYWGYNYWGQGTQVTVSS | high polyreactivity |
| QVQLVESGGGLVQAGGSLRLSCAASGRTFQFYAMGWYRQAPGKEREWVAAISRSSGSTTYADSVKGRFTISRDNAKNTVYLQMNSLKPEDTAVFYCDADARYRSYSLLVRPARYYYWGQGTQVTVAS | high polyreactivity |
| QVQLVESGGGLVQAGGSLRLSCAASGRTFQGYAMGWYRQAPGKERELVAAISRSGGRTYYADSVKGRFTISRDNAKNTVYLQMNSLKPEDTAVYYCAARRRWSQTPFDYWGQGTQVTVSS | high polyreactivity |
| QVQLVESGGGLVQAGGSLRLSCAASGRTFQKNTMGWYRQAPGKERELVAAIDYSATTTYYADSVKGRFTISRDNAKNTVYLQMNSLKTEDTAVYYCAARWSYPRWEFDYWGQGTQVTVSS | high polyreactivity |
| QVQLVESGGGLVQAGGSLRLSCAASGRTFQLYAMGWYRQAPGKQRELVAAIRTGGSTNYADSVKGRFTISRDNAKNTVYLQMNSLKPEDTAVYYCAAVQRTDRSAHYSWGQGTQVTVSS | low polyreactivity |
| QVQLVESGGGLVQAGGSLRLSCAASGRTFQPYAMGWYRQAPGKERELVAAITSIGGSTFYADSVKGRFTISRDNAKNTVYLQMNSLKPEDTAVYYCNARRYWLRYDYWGQGTQVTVSS | low polyreactivity |
| QVQLVESGGGLVQAGGSLRLSCAASGRTFQPYAMGWYRQAPRKERELVASISRSGGRTYYADSVKGRFTISRDNAKNTVYLQMNSLKPEDTAVYYCADDIPYTRSIKYYYWGQGTQVTVSS | high polyreactivity |
| QVQLVESGGGLVQAGGSLRLSCAASGRTFQRNAMGWYIQAPGKERELVATITTNGGSTYYADSVKGRFTISRDNAKNTVYLQMNSLKPEDTAVYYCAAPFNPRVRTLRSVRMDYWGQGTQVTVSS | low polyreactivity |
| QVQLVESGGGLVQAGGSLRLSCAASGRTFQRYAMGWYRQAPGKERELVAAITSSGGTTYYADSVKGRFTISRDNAKNTVYLQMYSMKPEDTAVYYCAARRITSRYDYWGQGTQVTVSS | high polyreactivity |
| QVQLVESGGGLVQAGGSLRLSCAASGRTFQSNGMGWYRQAPGKERELVAAITWSSGTTYYADSVKGRFTISRDNAKNTVYLQMNSLKPEDTAVYYCAADWGHWNSLYYSGFGYWGQGTQVTVSS | low polyreactivity |
| QVQLVESGGGLVQAGGSLRLSCAASGRTFQSYAMGRYRQGPGKEREFVAVISRSGGDTYYADSVKGRFTISRDNAKNTVYLLMNSLKPEDTAVYYCARGYTWFYADCPEYDYWGQGTQVTVSS | high polyreactivity |

| Sequence | polyreactivity (PSR sort gate) |
| --- | --- |
| QVQLVESGGGLVQAGGSLRLSCAASGRTFQSYAMGWYRQAPGKERELVAAITITGGRTYYADSVKGRFTISRDNAKNTVYLQMNSLKPEDTAVYYCADYDYWGQGTQVTVSS | low polyreactivity |
| QVQLVESGGGLVQAGGSLRLSCAASGRTFQTNAMGWYRQAPGKVRELVAAISSTGGSTYYADSVKGRFTISRDNAKYTVYLQMNSLKPEDTAVYYCNAGRTYRYDYWGQGTQVTVSS | high polyreactivity |
| QVQLVESGGGLVQAGGSLRLSCAASGRTFQTYAMGWYRQAPGKERELVASINWSDGSTYYADSVKGRFTISRDNAKNTVYLQMNSLKPEDTAVYYCAADSSAWLYDYWGQGTQVTVSS | low polyreactivity |
| QVQLVESGGGLVQAGGSLRLSCAASGRTFQTYARGWYRQAPGKERELVAAISKSGGGTYYADSVKGRFTISRDNAKNTVYLQMNSLKPEDTAVYYCATAGYHYRAWGGRYDYWGQGTQVTVSS | high polyreactivity |
| QVQLVESGGGLVQAGGSLRLSCAASGRTFQVYAMGWYTQAPGKERELVADITGRGGITYYADSVKGRFTISRDNAKNTVYLQMNSLKPEDTAVYYCAAERYNYKTIYRYDYWGQGTQVTVSS | high polyreactivity |
| QVQLVESGGGLVQAGGSLRLSCAASGRTFQYNAMGWYRQAPGKERELVAAISSSGGSTYYADSVKGRFTISRDNAKNTVYLQMNSLKPEDTAVYYCNAYSQSWNFYGDGDYWGQGSQVTVSS | low polyreactivity |
| QVQLVESGGGLVQAGGSLRLSCAASGRTFQYYAMGWYIQGPGKERELVAAISWSGGSTYYADSVKGRFTISRDNAKNTVYLQMNSLKPEDTAVYFCAAVVGRNRTRSYGYWGQGTQVTVSS | high polyreactivity |
| QVQLVESGGGLVQAGGSLRLSCAASGRTFQYYAMGWYRQAPGKERELVAAINQGGGRTYYADSVKGRFTISRDTAKNTVYLQMNSLKPEDTAVYYCAADGLSKFDYWGQGTQVTVSS | low polyreactivity |
| QVQLVESGGGLVQAGGSLRLSCAASGRTFQYYAMGWYRQAPGKERELVAAITSGGSTYYADSVTGRFTISRDNAKYTVYLQLNSLKPEDTAVYYCDATFYYSGHDDYWGQGTLVTVSS | low polyreactivity |
| QVQLVESGGGLVQAGGSLRLSCAASGRTFQYYAMGWYRQAPGQERELVAAITSGGSTYYADSVKGRFTISRDNAKNTVYLQMNSLKPEDTAVYYCAATFYYSGHYDYWGQGTQVTVSS | low polyreactivity |
| QVQLVESGGGLVQAGGSLRLSCAASGRTFRANAMEWYRQAPGKEREFVAVISLSGGGTYADSVKGRFTISRDNAKNTVYLQMNSLKPEDTAVYYCNRVPRRREYFHSNYLALFDYWGQGTQVTVSW | low polyreactivity |
| QVQLVESGGGLVQAGGSLRLSCAASGRTFRANAMGWYRQAPGKERELVAAITSTGDRTYYADSVKGRFTISRDNAKNTVYLQMNSLKPEDTAVYYCAAENNRYGGYRKYDYWGQGTQVTVSS | low polyreactivity |
| QVQLVESGGGLVQAGGSLRLSCAASGRTFRAYAMGWYRQAPGKERELVAAISYDGTRTYYADSVKGRFTISRDNAKNTVYLQMNSLKPEDTAVYYCNAVWVRGFYRVYDYWGQGTQVTVSS | high polyreactivity |
| QVQLVESGGGLVQAGGSLRLSCAASGRTFRCYAMGWDRQAPGKERELVAAITYSVGSTYYADSVKGRLTISRDTAKNTVYLQMNSLKPEDTAVYYCAADSYPYRYRGKYSRLDYCGQGTQVTVSS | low polyreactivity |
| QVQLVESGGGLVQAGGSLRLSCAASGRTFRFNAMGWYRQAPGKEREFVAAITSGGGTYYADSVKGRFTISRDNGKNTVYLQMNSLKPEDTAVYYCATVGKVHHRLVAMDYWGQGTQVTVSS | low polyreactivity |
| QVQLVESGGGLVQAGGSLRLSCAASGRTFRFNAMGWYRQAPGKERELVAAISSRGGNTYYADSVKGRFTISRDNAKNTVYLQMNSLKPVDTSVYYCNKDLNYWGYAKYYGYYYWGQGTQVTVSS | high polyreactivity |
| QVQLVESGGGLVQAGGSLRLSCAASGRTFRFYAMGWYRQAPGKERELVAAIRWSGGSTYYADSVKGRFTISRDNAKNTVYLQMNSLKPEDTAVYYCNADNRWPFGGWYGLDYWGQGTQVTVSS | high polyreactivity |
| QVQLVESGGGLVQAGGSLRLSCAASGRTFRGNAMGWYRQAPGKERELVAAIRYRGGSTYYADSVKGRFTISRDNAKNTVYLQMNSLKPEDTAVYYCARRYTVHTQHYDYWGQGTQVTVSS | high polyreactivity |
| QVQLVESGGGLVQAGGSLRLSCAASGRTFRGNAMGWYRQAPGKERELVAAISRSGGRTYYADSVKGRFTISRDNAKNTVYLQMNSLKPEDTAVYYCNARSYRRWGYYKQAPNGDYWGQGTQVTVSS | high polyreactivity |
| QVQLVESGGGLVQAGGSLRLSCAASGRTFRGNAMGWYRQAPGKERELVATINSGASTNYADSVKGRFTISRDNAKNPVYLQMNSLNPEDTAVYYCAAVKYFRWKYNYWGQGTQVTVSS | high polyreactivity |
| QVQLVESGGGLVQAGGSLRLSCAASGRTFRGNDMGWYRQAPGKEWELVATITRNGGSTRYADSVKGRFTISRDNAKNTVYLQMNSLKPEDTAVYYCNARSRYFGYDYWGQGTQVTVSS | high polyreactivity |
